Test results from patent US20210246166A1 (Bayer, published 2021).
Numbered stars: 1 amine (or outer) side, 2 acyl side, 3 side chain; on linkers, the order of the positions; unused ones are H or OH. Bridge positions count the residues as written; N and C are the ends. Square brackets hold non-standard residues; d marks the D form. Ends that are not written are not given here. * marks the point of attachment. X7 = 4‑(3,5-Dimethyl-1,2-oxazol-4-yl)‑L‑phenylalanine, Cc1noc(C)c1-c1ccc(C[C@H](N[*:1])C(=O)[*:2])cc1; Pro(trans-4-F) = O=C(O)[C@@H]1C[C@@H](F)CN1; Oic = O=C(O)[C@@H]1C[C@@H]2CCCC[C@@H]2N1; Morpholine(3S-CO) = O=C(O)[C@@H]1COCCN1; Butanoyl(3,3-Me2) = CC(C)(C)CC(=O)*; Cyclopropanecarbonyl = O=C(C1CC1)*; Hyp = O=C(O)[C@@H]1C[C@@H](O)CN1; tBuAla = CC(C)(C)C[C@H](N)C(=O)O; Pen = CC(C)(S)[C@H](N)C(=O)O; 4Amb = NCc1ccc(C(=O)O)cc1; Isovaleryl = CC(C)CC(=O)*; NMeC = CN[C@@H](CS)C(=O)O; Me2Gly = CN(C)CC(=O)*; Sar = CNCC(=O)O

T1: recombinant human MASP1 active protease (amino acids 297-699, C-terminal His Tag) (human, UniProt P48740 297-699)
T1 sequence: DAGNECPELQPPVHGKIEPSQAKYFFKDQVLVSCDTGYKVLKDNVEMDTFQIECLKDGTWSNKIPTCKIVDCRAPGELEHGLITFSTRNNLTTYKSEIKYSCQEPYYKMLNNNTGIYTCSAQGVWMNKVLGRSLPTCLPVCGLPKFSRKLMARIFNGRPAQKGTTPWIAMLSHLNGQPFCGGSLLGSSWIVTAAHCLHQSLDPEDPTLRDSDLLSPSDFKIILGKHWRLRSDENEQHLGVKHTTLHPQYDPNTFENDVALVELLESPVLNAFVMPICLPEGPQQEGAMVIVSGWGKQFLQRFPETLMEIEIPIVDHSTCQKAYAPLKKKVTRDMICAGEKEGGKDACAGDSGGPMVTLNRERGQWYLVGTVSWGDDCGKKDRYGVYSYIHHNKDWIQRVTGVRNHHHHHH


Experiments:
[1] = target: recombinant human MASP2 active protease (amino acids 297-686, C-terminal His Tag) (human, UniProt O00187 297-686); test: cell-based or functional assay
Chain of recombinant human MASP2 active protease (amino acids 297-686, C-terminal His Tag) (O00187 other isoform, or with tags, fused parts or gaps limits assumed): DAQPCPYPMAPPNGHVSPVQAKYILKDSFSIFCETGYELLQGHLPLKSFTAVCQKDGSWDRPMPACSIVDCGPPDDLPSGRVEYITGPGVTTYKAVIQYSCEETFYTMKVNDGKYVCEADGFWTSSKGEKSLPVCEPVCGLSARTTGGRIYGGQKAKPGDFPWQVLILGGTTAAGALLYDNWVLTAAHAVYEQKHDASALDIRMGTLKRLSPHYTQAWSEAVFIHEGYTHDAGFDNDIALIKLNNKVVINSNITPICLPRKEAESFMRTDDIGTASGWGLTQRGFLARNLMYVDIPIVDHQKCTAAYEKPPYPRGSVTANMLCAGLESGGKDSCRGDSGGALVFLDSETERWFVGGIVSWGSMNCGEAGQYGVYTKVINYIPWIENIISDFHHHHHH

[2] = target: T1, recombinant human MASP1 active protease …; test: cell-based or functional assay

| human MASP2 IC50 [1] | human MASP1 IC50 [2] | Binder |
| --- | --- | --- |
| 930 nM | 29 nM | AICSRSLP[(3S-OH)P]ICIPD-NH2 (disulfide 3-11) [Example 355: AIC+SRSLP-((3S-OH)P)-IC+IPD-NH2] |
| 510 nM | 29 nM | [Sar]ICSRSL[Pro(trans-4-F)]PICIPD-OH (disulfide 3-11; N-terminus assumed; SMILES CC[C@H](C)[C@H](NC(=O)CNC)C(=O)N[C@H]1CSSC[C@@H](C(=O)N[C@H](C(=O)N2CCC[C@H]2C(=O)N[C@@H](CC(=O)O)C(=O)O)[C@@H](C)CC)NC(=O)[C@H]([C@@H](C)CC)NC(=O)[C@@H]2CCCN2C(=O)[C@@H]2C[C@@H](F)CN2C(=O)[C@H](CC(C)C)NC(=O)[C@H](CO)NC(=O)[C@H](CCCNC(=N)N)NC(=O)[C@H](CO)NC1=O) [Example 354: ((N-Me)G)-IC+SRSL-((trans-4-Fluoro)P)-PIC+IPD-OH] |
| 370 nM | 28 nM | [Me2Gly]ICSRSLPPICIPD-NH2 (disulfide 3-11; SMILES CC[C@H](C)[C@H](NC(=O)CN(C)C)C(=O)N[C@H]1CSSC[C@@H](C(=O)N[C@H](C(=O)N2CCC[C@H]2C(=O)N[C@@H](CC(=O)O)C(N)=O)[C@@H](C)CC)NC(=O)[C@H]([C@@H](C)CC)NC(=O)[C@@H]2CCCN2C(=O)[C@@H]2CCCN2C(=O)[C@H](CC(C)C)NC(=O)[C@H](CO)NC(=O)[C@H](CCCNC(=N)N)NC(=O)[C@H](CO)NC1=O) [Example 350: ((N,N-diMe)G)-IC+SRSLPPIC+IPD-NH2] |
| 420 nM | 9.6 nM | [Sar]ICSRSLP[Oic]ICIPD-OH (disulfide 3-11; N-terminus assumed; SMILES CC[C@H](C)[C@H](NC(=O)CNC)C(=O)N[C@H]1CSSC[C@@H](C(=O)N[C@H](C(=O)N2CCC[C@H]2C(=O)N[C@@H](CC(=O)O)C(=O)O)[C@@H](C)CC)NC(=O)[C@H]([C@@H](C)CC)NC(=O)[C@@H]2C[C@@H]3CCCC[C@@H]3N2C(=O)[C@@H]2CCCN2C(=O)[C@H](CC(C)C)NC(=O)[C@H](CO)NC(=O)[C@H](CCCNC(=N)N)NC(=O)[C@H](CO)NC1=O) [Example 349: ((N-Me)G)-IC+SRSLP-(Oic)-IC+IPD-OH] |
| 50 nM | 28 nM | Cyclopropanecarbonyl-ICSRS[tBuAla]PPI[NMeC]I-NH2 (disulfide 2-10; SMILES CC[C@H](C)[C@H](NC(=O)[C@@H]1CSSC[C@H](NC(=O)[C@@H](NC(=O)C2CC2)[C@@H](C)CC)C(=O)N[C@@H](CO)C(=O)N[C@@H](CCCNC(=N)N)C(=O)N[C@@H](CO)C(=O)N[C@@H](CC(C)(C)C)C(=O)N2CCC[C@H]2C(=O)N2CCC[C@H]2C(=O)N[C@@H]([C@@H](C)CC)C(=O)N1C)C(N)=O) [Example 353: (Cyclopropanecarboxylic)-IC+SRS-((tBu)A)-PPI-((N-Me)C)+I-NH2] |
| 55 nM | 31 nM | [X7]ICSRSLP[Oic]I[Pen]IP-NH2 (disulfide 3-11; N-terminus assumed; SMILES CC[C@H](C)[C@H](NC(=O)[C@@H](N)Cc1ccc(-c2c(C)noc2C)cc1)C(=O)N[C@H]1CSSC(C)(C)[C@@H](C(=O)N[C@H](C(=O)N2CCC[C@H]2C(N)=O)[C@@H](C)CC)NC(=O)[C@H]([C@@H](C)CC)NC(=O)[C@@H]2C[C@@H]3CCCC[C@@H]3N2C(=O)[C@@H]2CCCN2C(=O)[C@H](CC(C)C)NC(=O)[C@H](CO)NC(=O)[C@H](CCCNC(=N)N)NC(=O)[C@H](CO)NC1=O) [Example 360: (4-(3,5-Dimethyl-1,2-oxazol-4-yl)-L-phenylalanine)-IC+SRSLP-(Oic)-I-(Pen)+IP-NH2] |
| 34 nM | 31 nM | {Butanoyl(3,3-Me2)}-ICSRS[tBuAla]PPI[Pen]IP-NH2 (disulfide 2-10; SMILES CC[C@H](C)[C@H](NC(=O)CC(C)(C)C)C(=O)N[C@H]1CSSC(C)(C)[C@@H](C(=O)N[C@H](C(=O)N2CCC[C@H]2C(N)=O)[C@@H](C)CC)NC(=O)[C@H]([C@@H](C)CC)NC(=O)[C@@H]2CCCN2C(=O)[C@@H]2CCCN2C(=O)[C@H](CC(C)(C)C)NC(=O)[C@H](CO)NC(=O)[C@H](CCCNC(=N)N)NC(=O)[C@H](CO)NC1=O) [Example 359: (tert-Butylacetic acid)-IC+SRS-((tBu)A)-PPI-(Pen)+IP-NH2] |
| 71 nM | 28 nM | XXAICSRS[tBuAla]PPI[Pen]IPD-OH (disulfide 5-13; not fully specified (N-terminus); printed as (D-(+)Biotin)-(Ahx)-AIC + SRS-((tBu)A)-PPI-(Pen) + IPD-OH) [Example 352: (D-(+)Biotin)-(Ahx)-AIC+SRS-((tBu)A)-PPI-(Pen)+IPD-OH] |
| 98 nM | 33 nM | Tranexamic-ICSRSLPPI[NMeC]IPD-NH2 (disulfide 2-10) [Example 364: (Tranexamic)-IC+SRSLPPI-((N-Me)C)+IPD-NH2] |
| 65 nM | 33 nM | [4Amb]ICSRSLPPI[NMeC]IPD-NH2 (disulfide 3-11; N-terminus assumed; SMILES CC[C@H](C)[C@H](NC(=O)c1ccc(CN)cc1)C(=O)N[C@H]1CSSC[C@@H](C(=O)N[C@H](C(=O)N2CCC[C@H]2C(=O)N[C@@H](CC(=O)O)C(N)=O)[C@@H](C)CC)N(C)C(=O)[C@H]([C@@H](C)CC)NC(=O)[C@@H]2CCCN2C(=O)[C@@H]2CCCN2C(=O)[C@H](CC(C)C)NC(=O)[C@H](CO)NC(=O)[C@H](CCCNC(=N)N)NC(=O)[C@H](CO)NC1=O) [Example 362: (4-(Aminomethyl)benzoic acid)-IC+SRSLPPI-((N-Me)C)+IPD-NH2] |
| 690 nM | 28 nM | GICSRSLPPICI[Hyp]D-OH (disulfide 3-11; N-terminus assumed; SMILES CC[C@H](C)[C@H](NC(=O)CN)C(=O)N[C@H]1CSSC[C@@H](C(=O)N[C@H](C(=O)N2C[C@H](O)C[C@H]2C(=O)N[C@@H](CC(=O)O)C(=O)O)[C@@H](C)CC)NC(=O)[C@H]([C@@H](C)CC)NC(=O)[C@@H]2CCCN2C(=O)[C@@H]2CCCN2C(=O)[C@H](CC(C)C)NC(=O)[C@H](CO)NC(=O)[C@H](CCCNC(=N)N)NC(=O)[C@H](CO)NC1=O) [Example 348: GIC+SRSLPPIC+I-(Hyp)-D-OH] |
| 1300 nM | 31 nM | GICSRSL[Morpholine(3S-CO)]PICIPD-OH (disulfide 3-11) [Example 357: GIC+SRSL-(Morpholine-3-carboxylic)-PIC+IPD-OH] |
| 19 nM | 31 nM | Isovaleryl-ICSRS[tBuAla]PPI[NMeC]I-NH2 (disulfide 2-10; SMILES CC[C@H](C)[C@H](NC(=O)[C@@H]1CSSC[C@H](NC(=O)[C@@H](NC(=O)CC(C)C)[C@@H](C)CC)C(=O)N[C@@H](CO)C(=O)N[C@@H](CCCNC(=N)N)C(=O)N[C@@H](CO)C(=O)N[C@@H](CC(C)(C)C)C(=O)N2CCC[C@H]2C(=O)N2CCC[C@H]2C(=O)N[C@@H]([C@@H](C)CC)C(=O)N1C)C(N)=O) [Example 358: (Isovaleric)-IC+SRS-((tBu)A)-PPI-((N-Me)C)+I-NH2] |
| 1000 nM | 32 nM | [Sar]PICSRS[tBuAla]PPI[Pen]IP-NH2 (disulfide 4-12; N-terminus assumed; SMILES CC[C@H](C)[C@H](NC(=O)[C@@H]1CCCN1C(=O)CNC)C(=O)N[C@H]1CSSC(C)(C)[C@@H](C(=O)N[C@H](C(=O)N2CCC[C@H]2C(N)=O)[C@@H](C)CC)NC(=O)[C@H]([C@@H](C)CC)NC(=O)[C@@H]2CCCN2C(=O)[C@@H]2CCCN2C(=O)[C@H](CC(C)(C)C)NC(=O)[C@H](CO)NC(=O)[C@H](CCCNC(=N)N)NC(=O)[C@H](CO)NC1=O) [Example 361: ((N-Me)G)-PIC+SRS-((tBu)A)-PPI-(Pen)+IP-NH2] |
